In data set [1] the target is T1, RelA (Escherichia coli, full length, His-tagged) (Escherichia coli, UniProt P0AG20 1-744).
T1 construct: RelA, (p)ppGpp synthetase of Escherichia coli, 84 kDa, 744 AA (NTD AAs 1-455, CTD AAs 405-744); also called WT RelA; WT-RelA; source: E. coli CF9467 (pQE30-relA), purified (Ni-NTA agarose); not shown: His6, N-terminal, kept
T1 sequence (looked up): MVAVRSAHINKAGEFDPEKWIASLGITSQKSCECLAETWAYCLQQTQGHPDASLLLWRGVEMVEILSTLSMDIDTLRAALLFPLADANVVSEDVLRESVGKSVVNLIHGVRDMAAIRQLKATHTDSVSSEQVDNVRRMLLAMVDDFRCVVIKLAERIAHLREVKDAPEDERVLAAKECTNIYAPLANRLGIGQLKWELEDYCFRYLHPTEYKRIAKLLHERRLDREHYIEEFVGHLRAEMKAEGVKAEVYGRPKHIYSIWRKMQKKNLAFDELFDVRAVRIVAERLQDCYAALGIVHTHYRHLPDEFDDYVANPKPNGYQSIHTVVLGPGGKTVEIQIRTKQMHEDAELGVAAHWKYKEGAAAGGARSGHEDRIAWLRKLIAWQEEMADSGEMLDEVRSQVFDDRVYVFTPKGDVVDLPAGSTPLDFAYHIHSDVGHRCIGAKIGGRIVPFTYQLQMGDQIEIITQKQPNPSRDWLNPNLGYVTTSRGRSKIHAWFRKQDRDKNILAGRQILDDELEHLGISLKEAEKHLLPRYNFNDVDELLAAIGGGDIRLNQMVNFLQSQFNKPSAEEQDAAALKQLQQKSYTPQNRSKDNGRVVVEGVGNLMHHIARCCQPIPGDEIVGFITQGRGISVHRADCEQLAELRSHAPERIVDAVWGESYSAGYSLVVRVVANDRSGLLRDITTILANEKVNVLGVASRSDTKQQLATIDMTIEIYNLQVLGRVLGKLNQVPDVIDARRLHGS
As to the kind of experiment: cross-linking; 10 ul with 12.5 mM Na phosphate pH 7.2, 12.5 mM NaCl, 2.5% glycerol, 1 x 10^-3% glutaraldehyde, 4 ug of protein; 15 min on ice; SDS-PAGE and Western blot with anti-His antibody. The settings on record: both partners purified. (In western blotting, separated proteins are transferred to a membrane and probed.)

Data set [2] concerns the molecule itself. The description is as above.

B1: YG4 (fragment of the RelA C-terminal domain, AA 564-744, His-tagged) (domain or fragment, Escherichia coli, UniProt P0AG20 564-744, looked up)
chain: FNKPSAEEQDAAALKQLQQKSYTPQNRSKDNGRVVVEGVGNLMHHIARCCQPIPGDEIVGFITQGRGISVHRADCEQLAELRSHAPERIVDAVWGESYSAGYSLVVRVVANDRSGLLRDITTILANEKVNVLGVASRSDTKQQLATIDMTIEIYNLQVLGRVLGKLNQVPDVIDARRLHGS
notes: RelA of Escherichia coli, AA 564-744 (MW 21 kDa); holds the RIS domain (AA 585-660) and the ACT domain (AA 665-744); also called native YG4; WT-YG4; source: E. coli CF9467 (pYG4), purified (Ni-NTA agarose); not shown: His6, N-terminal, kept
Take B1: the binding result in data set [1] and in data set [2] was “binds” throughout.

Values taken from paper PMC7669825, “Escherichia coli RelA Regulation via Its C-Terminal Domain” (Frontiers in Microbiology, 2020).
